Assay results as given in US5955420, “Rse receptor activation” (Genentech, Inc., dated 1999).

Target: CD4-IgG (human, UniProt P01730)
Experiment: competition in the FBS-mediated CMK11-5 membrane binding assay
Method: After a 30 min incubation at room temperature, 1 ml of ice cold assay buffer was added to each tube. Then, the membrane associated radioactivity was collected by centrifugation for 4 min at 15000 g, separated from unbound radioactivity by aspiration of the supernatant fluid and counted in a γ counter.

B1: Rse ligand (Rse-L) in fetal bovine serum, unpurified or Q-Sepharose enriched (ligand)
chain: ANTLLEETKKGNLERECIEELCNKEEAREIFENNPETEYFYPKYLGCLGSFRAGLFTAARLSTNAYPDLRSCVNAISDQCNPLPCNEDGFMTCKDGQATFTCICKSGWQGEKCESDINECKDPVNINGGCSQICENTPGSYHCSCKNGFVMLSNKKDCKDVDECVLKPSICGTAVCKNIPGDFECECAEGYKYNPVSKSCDDVDECAENLCAQLCVNYPGGYSCYCDGKKGFKLAQDQKSCEAVPVCLPLDLDKNYELLYLAEQFVGVVLYLKFRLPETTRFSAEFDFRTYDSEGVILYAESSDHSAWFLIALREGKIEIQFKNEKTTKMTTGGKVINDGLWHMVSVEELEQSISVKIAKEAVMNINKPGSLFKPTNGFLETKVYFAGVPRKMENALIRPINPRLDGCIRGWNLMNQGTSGVKEIIQEKQNKHCLVNVEKGSYYPGTGVAQFSINYKNESNPEAWQINVSLNIRPSAGTGVMLALVSDNTVPFALSLVDSATEKLQDILVSVESMVIGRIEAISLCSDQQTFLEIRVNRNNLELSTQLRKDSFHSEDFQRQFAILDEAMKGTVVTYLGGLPDVPFSATPVNAFYQGCMEVNINGVQVDLDEAISKHNDIRAHSCPSVWQKTKHT
  binding result: no binding
